Assays:
[1] = test system: splenocytes; assay: Cytokine production by splenocytes after in vitro stimulation (Example 3); type: cell-based, mouse; conditions: splenocytes of MKC mice treated by ERT with GALNS; culture supernatant
Experimental: Mice (MKC) genetically engineered not to express GALNS were used in these examples. […] 200 μl of the emulsion were administered as a subcutaneous injection. […] Control mice (n=2) were immunized with PBS emulsified in CFA and IFA respectively (Chung et al. (2005) J. Leukoc Biol. 77(6):906-13)). […] A control group (n=5) received PBS (Tomatsu et al. (2008) Hum Mol Genet. 15; 17(6):815-24). […]
The production of cytokines after peptide stimulation was evaluated as intracellular staining (by flow cytometry) and secreted cytokines (by LUMINEX). […] The cells were treated with 1 μl of a protein transport inhibitor BD GolgiPlug™ during 5 h at 37° C., saturated humidity and 5% CO2. The suspension of cells was centrifuged at 1000 rpm during 10 minutes. The supernatants were collected by further analysis with LUMINEX. The Fc receptors were blocked with 1 μl of α-mouse CD16/32 (e-Bioscience) during 15 min at 4° C. After washing, the cells were stained with PE-Cy7-labeled anti-mouse CD4 and Alexa700-labeled anti-mouse CD8 antibodies during 30 min at 4° C. After two washes, cells were permeabilized with a BD fixation/permeabilization solution during 20 min at 4° C. Cells were washed two times and stained with a cocktail of antibodies for intracellular staining (PE-labeled anti-mouse IL-4, APC-labeled anti-mouse IL-5 and FITC-labeled anti-mouse IFN-γ). After two washes, cells were analyzed by flow cytometry. Secreted cytokines (IL-4, IL-5, IL-13, IL-17 and IFN-γ) in the collected supernatants were detected by using a bead immunoassay kit which allows the measurement of multiple proteins simultaneously (LUMINEX technology, using a Millipore Milliplex™ kit).

[2] = test system: splenocytes; assay: Secreted cytokine profile of splenocytes, retest in MKC mice (Example 7); type: cell-based, mouse; conditions: for IL-5 secretion, ERT treated vs PBS controls, p or significance / IL-13 secretion, ERT treated vs PBS controls, p or significance / profile of secreted cytokines, ERT treated vs PBS treated mice: MKC mice; for levels of IL-4 secretion among the stimuli / levels of IL-5 secretion among the stimuli: MKC mice treated by ERT; for profile of secreted cytokines, ERT treated vs PBS treated mice: 16 i.v. infusions
Experimental: The predicted peptides from Example 1 were reevaluated in MKC mice to reaffirm the selection of peptides 4, 8, and 10. […] A control group received PBS. […] The suspension was centrifuged at 1,000 rpm during 10 minutes. […] The specificity of cellular response against the peptides or the complete enzyme in the in vitro stimulation was determined by splenocyte proliferation or cytokine secretion in ERT treated mice or PBS injected control mice.
Cytokines were determined in the cell culture supernatants. […] Cells were centrifuged at 1,000 rpm during 10 min. Secreted cytokines (IL-4, IL-5, IL-13, and IFN-γ) in the collected supernatants were detected by a bead immunoassay kit which allow the measurement of multiple proteins simultaneously (LUMINEX xMAP Technology, using a Millipore Milliplex™ kit) according to manufacturer's instructions (FIG. 5).

[3] = test system: MKC mice; assay: Oral tolerance protocol followed by ERT, overall outcome; type: in vivo, mouse; conditions: oral administration prior to ERT
Source text: Control groups (7 and 8) received PBS alone.

[4] = test system: Morquio A mice and WT mice; assay: Plasma IgG anti-GALNS by indirect ELISA in mice treated by ERT (Example 8); type: in vivo, mouse; conditions: 16 i.v. infusions of GALNS
Experimental: Morquio A mouse models: a). […] 14(22): p. 3321-35).c). Missense mutation mice (Galnstm (C76S) SLU C2) (Tomatsu et al. (2007) Mol Genet Metab., 91(3): p. 251-8), and wild-type C57BL6 mice were treated by ERT. […] A control group received PBS.
An indirect ELISA technique was used to detect plasma IgG antibodies against GALNS in treated and untreated mice. […] The plates were blocked with 3% casein in PBS during 1 h at room temperature in a wet chamber. After two washes, first with TTBS (10 mM Tris, 150 mM NaCl, 0.05% Tween 20, pH 7.5), and then with TBS (10 mM Tris, 150 mM NaCl, 0.05%, pH 7.5), […] of mice plasma samples diluted (1:1,000) in TTBS were added to the plate and incubated 2 h at 37° C. in a wet chamber. Four washes with TTBS were performed. 100 μl of anti-mouse IgG-Peroxidase (Sigma) 1:5,000 dilution in TTBS were applied. After three washes with TTBS, followed by one wash with TBS, the experiment was developed with the substrate TMB (3,3′,5,5′-Tetramethylbenzidine, Sigma). The enzymatic reaction was stopped with IN HCl solution and the absorbance was measured at 450 nm in a microplate reader Multiskan® EL800 (Bio-Tek Instruments). Plasma concentrations of IgG antibodies anti-GALNS were derived by extrapolation of the absorbance values from a calibration curve using a mAb anti-GALNS.

Row | Molecule | secretion of cytokines IL-5 and IFN-γ [1] | IL-5 secretion, ERT treated vs PBS controls, p or significance [2] | IL-13 secretion, ERT treated vs PBS controls, p or significance [2] | levels of IL-4 secretion among the stimuli [2] | levels of IL-5 secretion among the stimuli [2] | profile of secreted cytokines, ERT treated vs PBS treated mice [2] | inducing oral tolerance to GALNS [3] | humoral response, IgG anti-GALNS in plasma ([4]; C2 mice) | humoral response, IgG anti-GALNS in plasma ([4]; MKC mice) | humoral response, IgG anti-GALNS in plasma ([4]; MTol mice) | humoral response, IgG anti-GALNS in plasma ([4]; WT mice)
1 | QQHQEALVPAQPQLNVTNWA (listed as Homo sapiens) [Peptide I10] | strong response | 0.0094 | 0.0002 | Higher levels | Higher levels | statistically significant difference | effective | – | – | – | –
2 | N-acetylgalactosamine-6-sulfatase (protein, listed as Homo sapiens, recombinant human GALNS produced in CHO cells, used for ERT and oral tolerance) APQPPNILLLLMDDMGWGDLGVYGEPSRETPNLDRMAAEGLLFPNFYSANPLCSPSRAALLTGRLPIRNGFYTTNAHARNAYTPQEIVGGIPDSEQLLPELLKKAGYVSKIVGKWHLGHRPQFHPLKHGFDEWFGSPNCHFGPYDNKARPNIPVYRDWEMVGRYYEEFPINLKTGEANLTQIYLQEALDFIKRQARHHPFFLYWAVDATHAPVYASKPFLGTSQRGRYGDAVREIDDSIGKILELLQDLHVADNTFVFFTSDNGAALISAPEQGGSNGPFLCGKQTTFEGGMREPALAWWPGHVTAGQVSHQLGSIMDLFTTSLALAGLTPPSDRAIDGLNLLPTLLQGRLMDRPIFYYRGDTLMAATLGQHKAHFWTWTNSWENFRQGIDFCPGQNVSGVTTHNLEDHTKLPLIFHLGRDPGERFPLSFASAEYQEALSRITSVVQQHQEALVPAQPQLNVCNWAVMNWAPPGCEKLGKCLTPPESIPKKCLWSH | – | 0.0029 | 0.0152 | Higher levels | Higher levels | statistically significant difference | effective | heterogeneous humoral response | stronger and more homogeneous response | lowest levels of response | heterogeneous humoral response

— patent US11529397B2, “Method of treating mucopolysaccharidosis type IVA” (Saint Louis University, priority 2018, dated 2022)
